The record followed here is patent US20120231006A1 (Amgen, published 2012).

The target in assay [1] is T1, hOrai1-mOrai1 ECL2 (…) protein (human/mouse chimera, UniProt Q96D31 1-301).
T1 construct: also called Ch
As to the kind of experiment: FACS, 293EBNA, RFI-POC grade. Also noted: concentration or dose not given beside the values.
T1 sequence (Q96D31 other isoform, or with tags, fused parts or gaps): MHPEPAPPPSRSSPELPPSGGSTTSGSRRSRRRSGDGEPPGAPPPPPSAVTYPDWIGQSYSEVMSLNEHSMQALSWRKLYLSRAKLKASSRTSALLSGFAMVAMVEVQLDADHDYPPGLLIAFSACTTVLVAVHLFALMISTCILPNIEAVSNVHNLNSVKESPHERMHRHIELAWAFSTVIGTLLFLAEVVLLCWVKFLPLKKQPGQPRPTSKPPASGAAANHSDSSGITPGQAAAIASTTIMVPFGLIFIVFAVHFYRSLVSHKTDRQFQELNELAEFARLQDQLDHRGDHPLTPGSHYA

The target of assay [2] is T2, hOrai1-mOrai1 ECL2 (…) protein (human/mouse chimera, UniProt Q96D31 1-301).
T2 construct: also called Ch
As to the kind of experiment: FACS, 293EBNA, RFI-POC grade. Set-up: concentration or dose not given beside the values. The source holds these as a separate data set.
T2 sequence (Q96D31 other isoform, or with tags, fused parts or gaps): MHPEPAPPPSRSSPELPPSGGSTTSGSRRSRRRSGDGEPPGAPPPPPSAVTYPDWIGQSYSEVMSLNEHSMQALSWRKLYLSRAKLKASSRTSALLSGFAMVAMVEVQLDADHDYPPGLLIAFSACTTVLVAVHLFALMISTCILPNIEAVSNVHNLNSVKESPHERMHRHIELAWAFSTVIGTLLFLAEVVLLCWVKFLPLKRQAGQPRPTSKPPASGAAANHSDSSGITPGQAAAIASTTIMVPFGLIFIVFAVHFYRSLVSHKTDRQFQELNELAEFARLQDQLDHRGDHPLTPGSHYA

The target of assay [3] is T3, hOrai1-mOrai1 ECL2 (RPTSKPPA) protein (human/mouse chimera, UniProt Q96D31 1-301).
T3 construct: also called Ch
T3 sequence (Q96D31 other isoform, or with tags, fused parts or gaps): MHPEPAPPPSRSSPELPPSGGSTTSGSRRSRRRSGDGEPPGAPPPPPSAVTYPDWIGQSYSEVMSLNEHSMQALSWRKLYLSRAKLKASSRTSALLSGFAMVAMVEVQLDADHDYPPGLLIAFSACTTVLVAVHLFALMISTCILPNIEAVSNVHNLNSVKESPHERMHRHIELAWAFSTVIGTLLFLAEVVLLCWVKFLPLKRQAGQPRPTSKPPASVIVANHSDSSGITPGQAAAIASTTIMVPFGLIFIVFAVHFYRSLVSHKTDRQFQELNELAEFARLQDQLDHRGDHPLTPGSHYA
Description: FACS, 293EBNA, RFI-POC grade. Also noted: concentration or dose not given beside the values.

Assay [4] concerns the target T4, mOrai1-hOrai1 ECL2 chimeric protein (human/mouse chimera, UniProt Q8BWG9 1-304 (mouse entry)).
T4 construct: mouse Orai1 with human ECL2; also called Ch
As to the kind of experiment: FACS, 293EBNA, RFI-POC grade. Also noted: concentration or dose not given beside the values.

Assay [5] has as its target T5, hOrai1-mOrai1 ECL2 (…) protein (human/mouse chimera, UniProt Q96D31 1-301).
T5 construct: also called Ch
Description: FACS, 293EBNA, RFI-POC grade. Set-up: concentration or dose not given beside the values. The source holds these as a separate data set. For orientation: Flow cytometry measures light scatter and fluorescence of single cells or particles in a stream.
T5 sequence (Q96D31 other isoform, or with tags, fused parts or gaps): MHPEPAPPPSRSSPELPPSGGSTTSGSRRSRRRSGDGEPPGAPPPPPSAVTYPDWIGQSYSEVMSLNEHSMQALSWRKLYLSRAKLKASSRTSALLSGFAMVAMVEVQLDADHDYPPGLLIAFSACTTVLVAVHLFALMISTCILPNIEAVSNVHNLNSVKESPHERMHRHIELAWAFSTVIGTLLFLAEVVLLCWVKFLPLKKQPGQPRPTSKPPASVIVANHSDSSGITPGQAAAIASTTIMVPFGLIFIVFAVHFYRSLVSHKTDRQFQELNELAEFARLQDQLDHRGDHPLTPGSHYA

The target in assay [6] is T6, hOrai1-mOrai1 ECL2 (SKPPA) protein (human/mouse chimera, UniProt Q96D31 1-301).
T6 construct: also called Ch
T6 sequence (Q96D31 other isoform, or with tags, fused parts or gaps): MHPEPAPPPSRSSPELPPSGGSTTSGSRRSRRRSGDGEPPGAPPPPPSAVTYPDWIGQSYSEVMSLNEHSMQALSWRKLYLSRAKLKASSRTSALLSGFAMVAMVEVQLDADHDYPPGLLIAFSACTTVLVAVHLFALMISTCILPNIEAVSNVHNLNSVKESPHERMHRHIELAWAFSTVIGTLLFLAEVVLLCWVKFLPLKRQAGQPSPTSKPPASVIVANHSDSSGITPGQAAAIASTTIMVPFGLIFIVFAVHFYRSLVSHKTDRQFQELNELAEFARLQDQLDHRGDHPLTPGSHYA
Description: FACS, 293EBNA, RFI-POC grade. Also noted: concentration or dose not given beside the values.

In assay [7] the target is T7, mOrai1-hOrai1 ECL2 (…) protein (human/mouse chimera, UniProt Q8BWG9 1-304 (mouse entry)).
T7 construct: also called Ch
As to the kind of experiment: flow cytometry on HEK-293 cells transfected with the chimera (loss of binding experiment).
T7 sequence (Q8BWG9 other isoform, or with tags, fused parts or gaps): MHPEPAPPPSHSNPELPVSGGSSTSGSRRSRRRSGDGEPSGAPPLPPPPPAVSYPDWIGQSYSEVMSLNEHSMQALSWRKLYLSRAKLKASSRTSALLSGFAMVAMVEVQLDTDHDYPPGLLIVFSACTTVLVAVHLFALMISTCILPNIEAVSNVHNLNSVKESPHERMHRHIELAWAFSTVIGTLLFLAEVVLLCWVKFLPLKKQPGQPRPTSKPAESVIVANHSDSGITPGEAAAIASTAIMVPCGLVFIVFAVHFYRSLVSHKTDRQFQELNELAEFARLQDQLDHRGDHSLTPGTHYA

Assay [8] concerns the target T8, mOrai1-hOrai1 ECL2 (…) protein (human/mouse chimera, UniProt Q8BWG9 1-304 (mouse entry)).
T8 construct: also called Ch
Described as above. This is another data set of the same source.
T8 sequence (Q8BWG9 other isoform, or with tags, fused parts or gaps): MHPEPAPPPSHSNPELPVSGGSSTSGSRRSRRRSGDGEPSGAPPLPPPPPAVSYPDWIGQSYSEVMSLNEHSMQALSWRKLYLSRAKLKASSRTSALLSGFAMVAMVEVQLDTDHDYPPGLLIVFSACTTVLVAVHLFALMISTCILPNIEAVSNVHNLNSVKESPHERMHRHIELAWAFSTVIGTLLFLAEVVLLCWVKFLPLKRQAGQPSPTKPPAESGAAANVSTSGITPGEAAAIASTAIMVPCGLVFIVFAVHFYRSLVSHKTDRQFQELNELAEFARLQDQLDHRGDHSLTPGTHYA

The target in assay [9] is T9, mOrai1-hOrai1 ECL2 (…) protein (human/mouse chimera, UniProt Q8BWG9 1-304 (mouse entry)).
T9 construct: also called Ch
The assay is described as above. This is another data set of the same source.
T9 sequence (Q8BWG9 other isoform, or with tags, fused parts or gaps): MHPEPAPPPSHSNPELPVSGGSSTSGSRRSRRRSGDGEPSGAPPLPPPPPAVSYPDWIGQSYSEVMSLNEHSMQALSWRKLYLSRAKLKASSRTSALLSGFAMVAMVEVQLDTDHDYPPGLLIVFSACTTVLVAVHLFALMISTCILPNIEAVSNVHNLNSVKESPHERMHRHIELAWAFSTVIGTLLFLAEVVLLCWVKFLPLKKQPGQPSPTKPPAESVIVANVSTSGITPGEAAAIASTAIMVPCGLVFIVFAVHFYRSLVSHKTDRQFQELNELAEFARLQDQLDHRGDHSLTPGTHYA

The target of assay [10] is T10, mOrai1-hOrai1 ECL2 (SPTKPPAE) protein (human/mouse chimera, UniProt Q8BWG9 1-304 (mouse entry)).
T10 construct: also called Ch
T10 sequence (Q8BWG9 other isoform, or with tags, fused parts or gaps): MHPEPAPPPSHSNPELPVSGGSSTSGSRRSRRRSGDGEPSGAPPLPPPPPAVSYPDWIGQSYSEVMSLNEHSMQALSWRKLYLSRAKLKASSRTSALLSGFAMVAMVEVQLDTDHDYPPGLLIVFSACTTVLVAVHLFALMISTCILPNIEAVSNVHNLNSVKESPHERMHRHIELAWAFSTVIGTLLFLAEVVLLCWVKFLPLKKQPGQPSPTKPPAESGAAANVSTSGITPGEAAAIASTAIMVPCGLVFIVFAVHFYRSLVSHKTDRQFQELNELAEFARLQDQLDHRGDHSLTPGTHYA
The assay is described as above.

For assay [11], the target named is T11, mOrai1-hOrai1 ECL2 (KPPAE) protein (human/mouse chimera, UniProt Q8BWG9 1-304 (mouse entry)).
T11 construct: also called Ch
T11 sequence (Q8BWG9 other isoform, or with tags, fused parts or gaps): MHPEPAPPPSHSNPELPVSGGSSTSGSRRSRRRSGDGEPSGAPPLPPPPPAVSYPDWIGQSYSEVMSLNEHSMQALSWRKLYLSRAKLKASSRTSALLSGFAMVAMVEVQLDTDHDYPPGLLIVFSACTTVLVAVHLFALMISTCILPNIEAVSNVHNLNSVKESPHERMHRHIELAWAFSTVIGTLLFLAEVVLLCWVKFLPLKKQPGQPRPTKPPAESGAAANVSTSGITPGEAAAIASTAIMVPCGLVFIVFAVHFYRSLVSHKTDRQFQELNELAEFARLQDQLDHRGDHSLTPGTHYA
The description is as above.

Assay [12] deals with T12, mOrai1-hOrai1 ECL2 (…) protein (human/mouse chimera, UniProt Q8BWG9 1-304 (mouse entry)).
T12 construct: also called Ch
The assay is described as above. The source holds these as a separate data set.
T12 sequence (Q8BWG9 other isoform, or with tags, fused parts or gaps): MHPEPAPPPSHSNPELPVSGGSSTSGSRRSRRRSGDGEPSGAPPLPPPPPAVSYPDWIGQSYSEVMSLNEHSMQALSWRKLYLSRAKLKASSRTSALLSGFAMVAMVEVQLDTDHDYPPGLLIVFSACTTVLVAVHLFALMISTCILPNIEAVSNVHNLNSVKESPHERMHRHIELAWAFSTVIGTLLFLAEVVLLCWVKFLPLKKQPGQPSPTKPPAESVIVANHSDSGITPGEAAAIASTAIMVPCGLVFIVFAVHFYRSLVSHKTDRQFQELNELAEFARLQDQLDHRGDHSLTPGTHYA

In assay [13] the target is T13, mOrai1-hOrai1 ECL2 (AESVIV) protein (human/mouse chimera, UniProt Q8BWG9 1-304 (mouse entry)).
T13 construct: also called Ch
T13 sequence (Q8BWG9 other isoform, or with tags, fused parts or gaps): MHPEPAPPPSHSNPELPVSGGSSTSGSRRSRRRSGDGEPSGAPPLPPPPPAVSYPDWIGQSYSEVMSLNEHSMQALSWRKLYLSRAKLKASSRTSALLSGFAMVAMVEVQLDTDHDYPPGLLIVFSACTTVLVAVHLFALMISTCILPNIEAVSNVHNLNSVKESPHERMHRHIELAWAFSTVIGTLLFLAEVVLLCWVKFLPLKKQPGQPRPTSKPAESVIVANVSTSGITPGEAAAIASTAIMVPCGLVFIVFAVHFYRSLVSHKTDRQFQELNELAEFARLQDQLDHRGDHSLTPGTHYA
The description is as above.

T4 sequence (Q8BWG9 other isoform, or with tags, fused parts or gaps mutant): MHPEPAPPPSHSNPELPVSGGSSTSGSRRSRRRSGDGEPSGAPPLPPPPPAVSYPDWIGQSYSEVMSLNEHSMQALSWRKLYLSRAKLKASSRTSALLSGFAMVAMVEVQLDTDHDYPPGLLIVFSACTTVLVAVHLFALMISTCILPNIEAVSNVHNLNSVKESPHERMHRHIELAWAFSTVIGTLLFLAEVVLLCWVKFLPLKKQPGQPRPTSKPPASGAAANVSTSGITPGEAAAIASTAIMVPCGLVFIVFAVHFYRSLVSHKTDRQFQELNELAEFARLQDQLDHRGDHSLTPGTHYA

B1: mAb 5A4.2 (antibody, human IgG2, lambda, V domains shown)
VH: QVQLVQSGAEVKKPGASVKVSCKASGYTFTDYYMNWVRQAPGQGLEWMGWINPNSGGTKYAQKFQGRVTMTRDTSIRTAYMELSRLRSDDTAVYYCSREYGGNSDWFDPWGQGTLVTVSS
VL: QSVLTQPPSVSGAPGQRVTISCTGSSSNIGAGYDVHWYQQLPGTAPKLLIYGNSNRPSGVPDRFSGSKSGTSASLAITGLQAEDEADYYCQSYDNRLSDSVVIGGGTKLTVQG
notes: fully human IgG2 lambda, Campaign 2
With B1, the “percent of control (POC) of FACS Geo Mean” value (from here on “percent of control”) in assay [1], in assay [2], in assay [3], in [4], in [5] and in assay [6] was 40 to 100% each time. The binding result in assay [7], in [8], in assay [9], in assay [10], in assay [11] and in assay [12] was “no binding” each time. Also, the binding result in assay [13] is given as “no binding”.

B2: mAb 5B1.1 (antibody, human IgG2, lambda, V domains shown)
VH: QVQLVQSGAEVKKPGASVKVSCKASGYTFTDYYINWVRQAPGQGLEWMGWINPNSGGSSYAQKFQGRVTMTRDTSISTAHMELIRLRSDDTAVYYCARERGGIEDWFDPWGQGTLVTVSS
VL: QSVLTQPPSVSGAPGQRVTISCTGSSSNIGAGYDVHWYQQLPGTAPKLLIYGNSNRPSGVPDRFSGSKSGTSASLAITKFQAEDEAVYYCQSYGSGLSGVVFGGGTKLTVLG
notes: fully human IgG2 lambda, Campaign 2; also called mAb 5Bl1.1
Turning to B2, the “percent of control” value in assay [1] lay in the range of 40 to 100%; in assay [2], 40 to 100%; in assay [3] it was 40 to 100%; in assay [4], 40 to 100%; in [5] it was 40 to 100%; in [6], 5 to 40%. The binding result in assay [8], in assay [9], in assay [10], in assay [11] and in [12] was “no binding” throughout.

B3: mAb 5B5.2 (antibody, human IgG2, lambda, V domains shown)
VH: QVQLVQSGAEVKKPGASVKVSCKASGYTFTDYYINWVRQAPGQGLEWMGWINPNSGGTDYAQKFQGRVTMTRDTSIRTAYMELNRLTSDDTAVYYCAREYGGYEDWFDPWGQGTLVTVSS
VL: QSVLTQPPSVSGAPGQRVTISCTGSNSNIGAGFDVHWYQQLPGTVPKLLIYGNNNRPSGVPDRFSGSKSGTSASLAITGLQAEDEADYYCQSYDSRLTVFGGGTKLTVLG
notes: fully human IgG2 lambda, Campaign 2; same chains as 5B5.1
Turning to B3, the “percent of control” value in assay [1] was in the range of 40 to 100%; in assay [2], 40 to 100%; in [3] it was 40 to 100%; in assay [4], 40 to 100%; in assay [5], 40 to 100%; in assay [6] it was 5 to 40%. In addition, the binding result in [7], in assay [8], in [9], in [10], in assay [11] and in assay [12] was “no binding” throughout. Further, the binding result in assay [13] is reported as “no binding”.

B4: mAb 5C1.1 (antibody, human IgG2, lambda, V domains shown)
VH: QVQLVQSGAEVKKPGASVKVSCKASGYTFTDYYMNWVRQAPGQGLEWMGWINPNSGGTKYAQKFQGRVTMTRDTSIRTAYMELSRLRSDDTAVYYCAREYGGNSDWFDPWGQGTLVTVSS
VL: QSVLTQPPSVSGAPGQRVTISCTGSSSNIGAGYDVHWYQQLPGTAPKLLIYGNSNRPSGVPDRFSGSKSGTSASLAITGLQAEDEADYYCQSYDNRLSDSVVIGGGTKLAVQG
notes: as for B1
Take B4: the “percent of control” value in assay [1], in assay [2], in assay [3], in assay [4], in [5] and in assay [6] was 40 to 100% throughout. Further, the binding result in assay [7], in [8], in assay [9], in assay [10], in assay [11] and in assay [12] was “no binding” each time. Moreover, the binding result in assay [13] is “no binding”.

B5: mAb 5F2.1 (antibody, human IgG2, lambda, V domains shown)
VH: QVQLVQSGAEVKKPGASVKVSCKASGYTFTDYYMNWVRQAPGQGLEWMGWINPNSGGTHYAQKFQGRVTMTRDTSISTAYMELSRLRSDDTAVYYCAREYGGYSDWFDPWGQGTLVTVSS
VL: QSVLTQPPSVSGAPGQRVTISCTGSRSNIGAGYDVHWYQQLPRTAPKLLIYDNSNRPSGVPDRFSGSKSGSSASLAITGLQAEDEADYYCQSYDNSLSDSVLIGGGTKLTVLG
notes: as for B1
In the case of B5, the “percent of control” value in [1], in [2], in assay [3], in assay [4], in assay [5] and in assay [6] was 40 to 100% throughout. In addition, the binding result in [7], in assay [8], in assay [9], in assay [10], in assay [11] and in assay [12] was “no binding” throughout. In addition, the binding result in [13] is “no binding”.

B6: mAb 5F7.1 (antibody, human IgG2, lambda)
heavy: QVQLVQSGAEVKKPGASVKVPCKASGYTFTDYYINWVRQAPGQGLEWMGWINPNNGGTNYAQKFQGRVTMTRDTSISTAYMELRRLRSDDTAVYYCARERGGYEDWFDPWGQGTLVTVSSASTKGPSVFPLAPCSRSTSESTAALGCLVKDYFPEPVTVSWNSGALTSGVHTFPAVLQSSGLYSLSSVVTVPSSNFGTQTYTCNVDHKPSNTKVDKTVERKCCVECPPCPAPPVAGPSVFLFPPKPKDTLMISRTPEVTCVVVDVSHEDPEVQFNWYVDGVEVHNAKTKPREEQFNSTFRVVSVLTVVHQDWLNGKEYKCKVSNKGLPAPIEKTISKTKGQPREPQVYTLPPSREEMTKNQVSLTCLVKGFYPSDIAVEWESNGQPENNYKTTPPMLDSDGSFFLYSKLTVDKSRWQQGNVFSCSVMHEALHNHYTQKSLSLSPGK
light: QSVLTQPPSVSGAPGQRVTISCTGSSSNIGAGFDVHWYQQLPVTAPKLLIYGNRNRPSGVPARFSGSKSGTSASLAITGLQAEDEAVYYCQSYDSSLTVFGGGTKLTVLGQPKANPTVTLFPPSSEELQANKATLVCLISDFYPGAVTVAWKADGSPVKAGVETTKPSKQSNNKYAASSYLSLTPEQWKSHRSYSCQVTHEGSTVEKTVAPTECS
notes: as for B1
As to B6, the “percent of control” value in [1], in assay [2], in assay [3], in [4], in [5] and in assay [6] was 40 to 100% in each case. Moreover, the binding result in assay [7], in assay [8], in [9], in [10], in assay [11] and in assay [12] was “no binding” throughout. In [13], the binding result is given as “no binding”.

B7: mAb 5A1.1 (antibody, human IgG2)
heavy: QVQLVQSGAEVKKPGASVKVPCKASGYTFTDYYINWVRQAPGQGLEWMGWINPNNGGTNYAQKFQGRVTMTRDTSISTAYMELRRLRSDDTAVYYCARERGGYEDWFDPWGQGTLVTVSSASTKGPSVFPLAPCSRSTSESTAALGCLVKDYFPEPVTVSWNSGALTSGVHTFPAVLQSSGLYSLSSVVTVPSSNFGTQTYTCNVDHKPSNTKVDKTVERKCCVECPPCPAPPVAGPSVFLFPPKPKDTLMISRTPEVTCVVVDVSHEDPEVQFNWYVDGVEVHNAKTKPREEQFNSTFRVVSVLTVVHQDWLNGKEYKCKVSNKGLPAPIEKTISKTKGQPREPQVYTLPPSREEMTKNQVSLTCLVKGFYPSDIAVEWESNGQPENNYKTTPPMLDSDGSFFLYSKLTVDKSRWQQGNVFSCSVMHEALHNHYTQKSLSLSPGK
VL: QSVLTQPPSVSGAPGQRVTISCTGSSSNIGAGFDVHWYQQLPVTAPKLLIYGNRNRPSGVPARFSGSKSGTSASLAITGLQAEDEAVYYCQSYDSSLTVFGGGTKLTVL
notes: fully human, Campaign 2; lambda CL-1
In the case of B7, the “percent of control” value in assay [1], in assay [2], in [3], in assay [4], in assay [5] and in assay [6] was 40 to 100% in each case. For the same molecule, the binding result in assay [7], in assay [8], in assay [9], in [10], in assay [11] and in assay [12] was “no binding” in each case. In addition, the binding result in assay [13] is “no binding”.
